This assay deals with soluble HA of A/Aichi/2/68 (H3N2) modified at the C-terminus with the GCN4pII trimerization repeat (influenza A virus A/Aichi/2/68 (H3N2) | Saccharomyces cerevisiae) (UniProt P03437). The assay is described as follows: cross-linking.

In the case of “soluble HA of A/Aichi/2/68 (H3N2) modified at the C-terminus with the GCN4pII trimerization repeat (from UniProt P03437 17-528)”, the stoichiometry N amounted to 3.

For the origin of these results see PMC2931692.
